Patent US20210063414A1, “METHODS FOR PREVENTING AND/OR TREATING BONE LOSS CONDITIONS BY MODULATING IRISIN” (Dana-Farber Cancer Institute, Inc., priority 2018, published 2021)

Target: T1, MLO-Y4 cell surface proteins (Mus musculus, UniProt Q9D051)
T1 construct: endogenous in cells; host or cells: MLO-Y4
T1 sequence (Q9D051 31-359): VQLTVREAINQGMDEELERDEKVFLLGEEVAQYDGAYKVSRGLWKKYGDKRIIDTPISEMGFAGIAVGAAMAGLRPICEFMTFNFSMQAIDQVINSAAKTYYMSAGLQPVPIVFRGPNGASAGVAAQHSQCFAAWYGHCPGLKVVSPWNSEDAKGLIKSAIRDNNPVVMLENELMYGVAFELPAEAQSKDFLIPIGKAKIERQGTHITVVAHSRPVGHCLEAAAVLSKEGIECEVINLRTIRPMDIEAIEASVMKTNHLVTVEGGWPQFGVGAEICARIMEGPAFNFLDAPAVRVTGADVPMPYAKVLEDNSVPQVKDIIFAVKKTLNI
Experiment: Crosslinking/co-immunoprecipitation/mass spectrometry (TMT quantitative proteomics) to identify irisin receptors
Format: binding
Conditions: co-precipitated protein Pdhb (ODPB_MOUSE)
Summary of the method: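 Mouse MLO-Y4 cells were switched to serum-free FreeStyle medium for 4 h, chilled, then exposed to 10 nM His-tagged irisin (or adipsin as control) for 20 min. Cells were crosslinked with 1.5 mM DTSSP (30 min, ice), and bound proteins were pulled down on Ni-NTA and eluted with 250 mM imidazole. Eluates were separated by SDS-PAGE, trypsin-digested in gel, TMT 6-plex labelled and quantified by MS3-based LC-MS/MS on an Orbitrap Fusion Lumos.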

B1: irisin: secreted cleaved form of FNDC5; recombinant human/mouse irisin with C-terminal his tag produced in HEK293 cells (protein)
chain: DSPSAPVNVTVRHLKANSAVVSWDVLEDEVVIGFAISQQKKDVRMLRFIQEVNTTTRSCALWDLEEDTEYIVHVQAISIQGQSPASEPVLFKTPREAEKMASKNKDEVTMKE
modifications: left off: small tags and cut ends
notes: secreted cleaved form of FNDC5; recombinant human/mouse irisin with C-terminal his tag produced in HEK293 cells
- TMT signal-to-noise ratio: 123.1
- irisin/adipsin TMT signal-to-noise ratio: 0.337
